Test results from the supplement of paper PMC7125110.
± gives the standard error. This sample holds only a part of the variants without activity.

B1: glmS ribozyme (parent)
chain: AUAAAAGCGCCAGAACUACAGAAAUGUAGUUGACGAGGAGGAGGUUUAUCGAAUUUUCGGCGGAUGCCUCCAAA

Key:
Conditions in all cases: with glucosamine-6-phosphate
glucosamine-6-phosphate [1] = variants of: B1; assay: self-cleavage kobs at 40 uM GlcN6P; higher = faster cleavage; RNA array
Procedure, shortened: (§1)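 Barcoded ribozyme variants, transcribed in situ by E. coli RNA polymerase on sequenced MiSeq chips, were followed via a hybridised Cy3 probe at 37 °C. Glucosamine-6-phosphate ranged from 40 μM to 10 mM in HEPES/KCl/Mg(OAc)2 buffer. kobs came from decay fits to per-tile medians, and kcat and KM from weighted Michaelis–Menten fits.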

glucosamine-6-phosphate [2] = variants of: B1; assay: self-cleavage kobs at 640 uM GlcN6P; higher = faster cleavage; RNA array
Procedure, shortened: as §1

glucosamine-6-phosphate [3] = variants of: B1; assay: self-cleavage kobs at 10000 uM GlcN6P; higher = faster cleavage; RNA array
Procedure, shortened: as §1

glucosamine-6-phosphate [4] = variants of: B1; assay: self-cleavage kobs at 160 uM GlcN6P; higher = faster cleavage; RNA array
Procedure, shortened: as §1

glucosamine-6-phosphate [5] = variants of: B1; assay: self-cleavage kobs at 2500 uM GlcN6P; higher = faster cleavage; RNA array
Procedure, shortened: as §1

Variant	self-cleavage kobs at 40 uM GlcN6P (glucosamine-6-phosphate [1]) [s⁻¹]	self-cleavage kobs at 640 uM GlcN6P (glucosamine-6-phosphate [2]) [s⁻¹]	self-cleavage kobs at 10000 uM GlcN6P (glucosamine-6-phosphate [3]) [s⁻¹]	self-cleavage kobs at 160 uM GlcN6P (glucosamine-6-phosphate [4]) [s⁻¹]	self-cleavage kobs at 2500 uM GlcN6P (glucosamine-6-phosphate [5]) [s⁻¹]
AUAAAAGCGCCAGAACUACAGAAAUGUAGUUGACGAGGAGGAGGUUUAUCCUAUUUUCGGCGGAUGCCUCCAAA [G51C A52U]	< 1e-05	< 1e-05	< 1e-05	–	–
AUAAAAGCGCCAGAACUACAGAAAUGUAGUUGACGAGGAGGAGGUUUAUGAAAUUUUCAGCGGAUGCCUCCAAA [C50G G51A G59A]	< 1e-05	–	–	–	–
AUAAAAGCGCCAGAACUACAGAAAUGUAGUUGACGAGGAGGAGGUUUAUCAAAUUUUCGGCGGCUGCCUCCAAA [G51A A64C]	< 1e-05	–	< 1e-05	< 1e-05	< 1e-05
AUAAAAGCGCCAGAACUACAGAAAUGUAGUUGACGAGGAGGAGGUUUAUCGGCAUUUCGGCGGAUGCCUCCAAA [A52G A53C U54A]	< 1e-05	–	–	–	–
AUAAAAGCGCCAGAACUACAGAAAUGUAGUUGACGAGGAGGAGGUUUAUCCAAUUUUCGGUCGAUGCCUCCAAA [G51C C61U G62C]	< 1e-05	–	< 1e-05	–	–
AUAAAAGCGCCAGAACUACAGAAAUGUAGUUGACGAGGAGGAGGUUUAUCAAAUUUUGGGCGGAUGCCUCCAAA [G51A C58G]	< 1e-05	–	< 1e-05	–	–
AUAAAAGCGCCAGAACUACAGAAAUGUAGUUGACGAGGAGGAGGUUUAUUGAAUUUUCGGCGGCUGACUCCAAA [C50U A64C C67A]	< 1e-05	< 1e-05	–	–	< 1e-05
AUAAAAGCGCCAGAACUACAGAAAUGUAGUUGACGAGGAGGAGGUUUAUCGGAUUUUCGACGGAGGCCUCUAAA [A52G G60A U65G C71U]	< 1e-05	–	–	–	–
AUAAAAGCGCCAGAACUACAGAAAUGUAGUUGACGAGGAGGAGGUUUAUGGAAUUUUCGGCGGACGUCUCCAAA [C50G U65C C67U]	6.84e-05 ± 1.4e-05	–	9.96e-05 ± 1.4e-05	–	0.000106 ± 2e-05
AUAAAAGCGCCAGAACUACAGAAAUGUAGUUGACGAGGAGGAGGUUUAUUGAAUUUUUGGCGGAUGCCUCCAAA [C50U C58U]	< 1e-05	< 1e-05	< 1e-05	–	–
AUAAAAGCGCCAGAACUACAGAAAUGUAGUUGACGAGGAGGAGGUUUAUCUAAUUUUCGGCGUCUGCCUCCAAA [G51U G63U A64C]	< 1e-05	–	–	–	< 1e-05
AUAAAAGCGCCAGAACUACAGAAAUGUAGUUGACGAGGAGGAGGUUUAUCGUAUUUUCGGAGGAUGCCUCCAAA [A52U C61A]	< 1e-05	–	< 1e-05	–	–
AUAAAAGCGCCAGAACUACAGAAAUGUAGUUGACGAGGAGGAGGUUUAUCGUGUUUUCGGUGGAUGCCUCCAAA [A52U A53G C61U]	< 1e-05	–	–	–	–
AUAAAAGCGCCAGAACUACAGAAAUGUAGUUGACGAGGAGGAGGUUUAUCGGAUUUUCGGCGCAUGCCUCCAAA [A52G G63C]	< 1e-05	–	–	–	–
AUAAAAGCGCCAGAACUACAGAAAUGUAGUUGACGAGGAGGAGGUUUAUGGAAUUUACGGCGUUUGCCUCCAAA [C50G U57A G63U A64U]	7.9e-05 ± 2.7e-05	–	–	–	–
AUAAAAGCGCCAGAACUACAGAAAUGUAGUUGACGAGGAGGAGGUUUAUUGAAAUUUCGGCGGAUGCCUCCAAA [C50U U54A]	< 1e-05	–	5.02e-05 ± 9.2e-06	< 1e-05	–
AUAAAAGCGCCAGAACUACAGAAAUGUAGUUGACGAGGAGGAGGUUUAUCCAAUUUUCGGCGAAUGCCUCCAAA [G51C G63A]	< 1e-05	–	–	< 1e-05	< 1e-05
AUAAAAGCGCCAGAACUACAGAAAUGUAGUUGACGAGGAGGAGGUUUAUGGAAUUUUCAGCGGAUGCCUCCAAA [C50G G59A]	4.42e-05 ± 2.2e-05	–	–	8.57e-05 ± 2.1e-05	–
